Experimental findings from patent publication US20200377587A1 (NANTBIO, published 2020) are described below.

As a reminder, the Kd is the free concentration of one partner at which half of the binding sites on the other are occupied at equilibrium, for simple one-to-one binding. As usually defined, the koff is the rate constant with which the complex falls apart. Low values mean slow dissociation, high ones fast dissociation. The term kon denotes a measure of how fast the partners come together.

The target in assay [1] is T1, IL-8 (UniProt P10145 28-99, limits assumed).
T1 construct: also called Interleukin-8; immobilized IL-8
T1 sequence (looked up): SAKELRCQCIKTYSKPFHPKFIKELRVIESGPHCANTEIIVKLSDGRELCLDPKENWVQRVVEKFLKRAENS
Nature of the assay: SPR, immobilized IL-8, scFv, 25 C. How it is done:
(§1) Here, scFv and corresponding humanized IgG₁ were prepared using the sequences as indicated, and KD was determined using SPR with immobilized IL-8 as […] on the chip surface. All values are expressed as nanoM values at temperatures as indicated.
In general terms: SPR reads the build-up and loss of mass on a sensor chip optically.

Assay [2] addresses T1, IL-8. Nature of the assay: SPR, immobilized IL-8, IgG1, 25 C. How it is done:
as §1

Assay [3] concerns the target T1, IL-8. Nature of the assay: SPR, immobilized IL-8, IgG, 37 C. As to the method: as §1
For assay [4], the target named is T1, IL-8. Nature of the assay: SPR, upper panel; no pH label is printed on this sheet (the upper panel of Fig.4A is pH7.4; the text names pH 7.4 and pH 6.0). How it is done:
(§2) In yet another set of experiments, the inventors used affinity maturation (here: random mutagenesis of CDR regions in VH and VL chains and mRNA display selection) of one previously identified IL-8 binder (here: 43-12, sequence in Table 1), and SPR analysis was performed on selected mutant forms using two different pH conditions, pH 7.4 and pH 6.0.

Assay [5] addresses T1, IL-8. In words: SPR, lower panel; no pH label is printed on this sheet (the lower panel of Fig.4A is pH6.0; the text names pH 7.4 and pH 6.0). How it is done:
as §2

The target of assay [6] is T1, IL-8. In words: SPR, IgG1, 25 C, pH 7.4, preliminary KD, lowest and highest value. An excerpt: (§3) The inventors contemplate that the binding affinities of the scFv, recombinant antibody or fragment thereof, to IL-8 may be different due to the structural differences even if the scFv, recombinant antibody or fragment thereof, are generated using the same amino acid sequences of VH segment and/or VL segments. For example, Table 2 provides different affinities (measured in KD value) of scFv and recombinant antibody (IgG1) of several clones. Clone 49-31 is a scFv or a recombinant antibody (IgG1) generated using amino acid sequences encoding VH segment (SEQ ID No. 1) and VL segment (SEQ ID No. 16), Clone 43-2 is a scFv or a recombinant antibody (IgG1) generated using amino acid sequences encoding VH segment (SEQ ID No. 8) and VL segment (SEQ ID No. 23), and Clone 43-12 is a scFv or a recombinant antibody (IgG1) generated using amino acid sequences encoding VH segment (SEQ ID No.10) and VL segment (SEQ ID No. 25). Preliminary KD values are determined by surface plasmon resonance measurement, and highest and lowest values are shown to estimate the range of the affinities to IL-8.

For assay [7], the target named is T1, IL-8. In words: SPR, IgG1, 37 C, pH 7.4, preliminary KD.
Text: as §3

The target in assay [8] is T1, IL-8. In words: SPR, IgG1, 25 C, pH 6.0, preliminary KD, lowest and highest value.
Text: as §3

Assay [9] concerns the target T1, IL-8. Nature of the assay: SPR, IgG1, 25 C, pH 7.4, preliminary KD.
Text: as §3

Assay [10] concerns the target T1, IL-8. Nature of the assay: SPR, IgG1, 37 C, pH 7.4, preliminary KD, lowest and highest value.
Text: as §3

The target of assay [11] is T1, IL-8. Nature of the assay: SPR, IgG1, 25 C, pH 7.4, preliminary KD, lowest and highest value; lowest value of the range; IgG1, 25 C, pH 7.4.
Text: as §3

Assay [12] deals with T1, IL-8. In words: SPR, IgG1, 37 C, pH 7.4, preliminary KD; IgG1, 37 C, pH 7.4.
Text: as §3

Assay [13] deals with T1, IL-8. Nature of the assay: SPR, scFv, preliminary KD.
Text: as §3

Residue numbers refer to the chain shown, from its start. Where “and” joins values, the source holds several entries; their conditions need not be identical. Equal values may be shown once.

B1: scFv 49-7 (scFv, V domains shown)
VH: EVQLVESGGGLVQPGGSLRLSCAASGFTFSSYAMHWVRQAPGKGLEWVSAISNSGASTYYADSVKGRFTISRDNSKNTLYLQMNSLRAENTAVYYCARDLMRWWIDGFDVWGQGTLVTVSS
VL: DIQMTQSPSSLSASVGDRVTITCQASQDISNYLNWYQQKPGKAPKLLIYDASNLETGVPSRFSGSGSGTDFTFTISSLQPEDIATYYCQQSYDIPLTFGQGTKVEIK
notes: also called Clone 49-7
In the assay with IL-8 [1], B1 displayed a Kd of 0.087 to 0.17 nM.

B2: scFv 49-32 (scFv, V domains shown)
VH: EVQLVESGGGLVQPGGSLRLSCAASGFTFSSYAMHWVRQAPGKGLEWVSAIYGNGGSTYYADSVKGRFTISRDNSKNTLYLQMNSLRAEDTAVYYCARDLYTIEPREAFDVWGQGTLVTVSS
VL: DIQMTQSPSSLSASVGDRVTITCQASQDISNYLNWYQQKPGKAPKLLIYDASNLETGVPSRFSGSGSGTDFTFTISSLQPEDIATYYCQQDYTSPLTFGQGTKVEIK
notes: also called Clone 49-32
In the assay with IL-8 [1], B2 showed a Kd of 0.21 to 0.24 nM.

B3: IgG1 49-32 (antibody, V domains shown)
VH: B2 VH
VL: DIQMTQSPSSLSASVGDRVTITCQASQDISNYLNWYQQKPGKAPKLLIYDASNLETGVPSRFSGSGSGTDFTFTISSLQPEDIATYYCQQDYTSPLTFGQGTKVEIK
notes: also called 49-32 IgG1; Clone 49-32
For B3, the Kd fell in the range of 0.77 to 0.87 nM with IL-8 [2] and 0.33 to 0.36 nM in the assay with IL-8 [3].

B4: scFv 43-12b (scFv, V domains shown)
VH: EVQLVESGGGLVQPGGSLRLSCAASGFTFSSYLMHWVRQAPGKGLEWVSAISGSGGITYYADSVKGRFTISRDNSKNTLYLQMNSLRAEDTAVYYCARDREGWFWHSYGFDVWGQGTLVTVSS
VL: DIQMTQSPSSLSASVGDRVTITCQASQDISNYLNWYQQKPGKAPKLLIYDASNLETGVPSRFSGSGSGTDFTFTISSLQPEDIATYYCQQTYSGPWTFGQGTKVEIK
notes: Derived from 43-12 by random mutagenesis of the CDRs and mRNA display
In the assay with IL-8 [4], B4 displayed a Kd of 2 nM, a koff of 0.0002 s⁻¹ and an association rate constant (kon) of 100000 M⁻¹ s⁻¹. Also, in the assay with IL-8 [5], the Kd was 2.3 nM, the koff worked out at 0.00076 s⁻¹ and the kon was 330000 M⁻¹ s⁻¹.

B5: recombinant antibody (IgG1) 43-12 (antibody, V domains shown)
VH: B4 VH with I57S
VL: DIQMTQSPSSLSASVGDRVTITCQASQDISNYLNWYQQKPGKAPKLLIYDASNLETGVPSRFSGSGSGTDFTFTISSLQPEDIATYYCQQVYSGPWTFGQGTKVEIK
notes: IgG1 ('corresponding humanized IgG1'); also called 43-12 IgG1; Clone 43-12
As to B5, the Kd is 0.43 to 0.78 nM with IL-8 [6]; 0.43 to 0.78 nM in the assay with IL-8 [2]; 0.31 nM with IL-8 [7]; 0.31 nM with IL-8 [3]; 3.46 to 6.7 nM in the assay with IL-8 [8].

B6: scFv 49-3 (scFv, V domains shown)
VH: EVQLVESGGGLVQPGGSLRLSCAASGFTFSSYAMTWVRQAPGKGLEWVSVISGSGGSTRYADSVKGRFTISRDNSKNTLYLQMNSLRAEDTAVYYCARDRKFPYVQFFRNGFDVWGQGTLVTVSS
VL: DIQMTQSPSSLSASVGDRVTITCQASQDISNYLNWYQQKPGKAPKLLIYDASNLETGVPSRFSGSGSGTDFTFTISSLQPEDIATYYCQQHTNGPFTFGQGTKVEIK
notes: also called Clone 49-3
Molecule B6 had a Kd with IL-8 [1] of 1.26 nM.

B7: IgG1 49-3 (antibody, V domains shown)
VH: B6 VH
VL: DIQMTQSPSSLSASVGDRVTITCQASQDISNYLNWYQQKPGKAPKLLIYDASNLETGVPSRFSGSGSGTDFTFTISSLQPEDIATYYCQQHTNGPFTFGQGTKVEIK
notes: also called 49-3 IgG1; Clone 49-3
Take B7: the Kd with IL-8 [2] was found to be 2.14 nM; in the assay with IL-8 [3] it was 9.19 nM.

B8: recombinant antibody (IgG1) 43-2 (antibody, V domains shown)
VH: EVQLVESGGGLVQPGGSLRLSCAASGFTFSSYAMHWVRQAPGKGLEWVSAISGSGGKTYYADSVKGRFTISRDNSKNTLYLQMNSLRAEDTAVYYCARDREAPFYTVYVTGFDVWGQGTLVTVSS
VL: DIQMTQSPSSLSASVGDRVTITCQASQDISNYLNWYQQKPGKAPKLLIYDASNLETGVPSRFSGSGSGTDFTFTISSLQPEDIATYYCQQDADTPLTFGQGTKVEIK
notes: IgG1 ('corresponding humanized IgG1'); also called 43-2 IgG1; Clone 43-2
For B8, the Kd with IL-8 [2] is 0.79 nM; with IL-8 [9], 0.79 nM; with IL-8 [3], 0.72 to 0.89 nM; in the assay with IL-8 [10] it was 0.72 nM and 0.89 nM.

B9: recombinant antibody (IgG1) 49-31 (antibody, V domains shown)
VH: EVQLVESGGGLVQPGGSLRLSCAASGFTFSSYYMHWVRQAPGKGLEWVSAISGGGSSTYYADSVKGRFTISRDNSKNTLYLQMNSLRAEDTAVYYCARDLRIFEGRDAGFDVWGQGTLVTVS
VL: B8 VL with A92D, T94V, L96W
notes: IgG1 ('corresponding humanized IgG1'); also called 49-31 IgG1; Clone 49-31
Consider B9, for which the Kd with IL-8 [11] is 0.009 to 0.25 nM; with IL-8 [2], 0.099 to 0.25 nM; with IL-8 [12], 0.117 nM; in the assay with IL-8 [3] it was 0.12 nM; in the assay with IL-8 [8], 0.21 to 0.22 nM.

B10: scFv 43-2 (scFv, V domains shown)
VH: B8 VH
VL: B8 VL
notes: also called Clone 43-2
Regarding B10, the Kd with IL-8 [1] and with IL-8 [13] was 1.41 nM each time.

B11: scFv 49-22 (scFv, V domains shown)
VH: EVQLVESGGGLVQPGGSLRLSCAASGFTFTSYAMHWVRQAPGKGLEWVSAISGSGGSTYYADSVKGRFTISRDNSKNTLYLQMNSLRAEDTAVYYCARDLDMFVPFWPAFDVWGQGTLVTVSS
VL: B8 VL with D91A, A92S
notes: also called Clone 49-22
B11: in the assay with IL-8 [1], the Kd lay within 0.11 to 0.114 nM.

B12: scFv 49-34 (scFv, V domains shown)
VH: EVQLVESGGGLVQPGGSLRLSCAASGFTLGSYAMHWVRQAPGKGLEWVSAISGSGGSTYYADSVKGRFTISRDNSKNTLYLQMNSLRAEDTAVYYCARDRDTVSIEVGFDVWGQGTLVTVSS
VL: B8 VL with A92S, D93A, T94F
notes: also called Clone 49-34
As for B12, the equilibrium dissociation constant (Kd) with IL-8 [1] fell in the range of 0.44 to 0.62 nM.

B13: scFv 49-18 (scFv, V domains shown)
VH: EVQLVESGGGLVQPGGSLRLSCAASGFTFSSYAMNWVRQAPGKGLEWVSAISWSGGNTYYADSVKGRFTISRDNSKNTLYLQMNSLRAEDTAVYYCARDLYAGYWGFDVWGQGTLVTVSS
VL: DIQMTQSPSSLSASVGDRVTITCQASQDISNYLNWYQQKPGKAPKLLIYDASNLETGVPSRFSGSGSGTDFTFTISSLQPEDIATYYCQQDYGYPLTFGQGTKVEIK
notes: also called Clone 49-18
Take B13: in the assay with IL-8 [1], the Kd was in the range of 0.41 to 0.89 nM.
